Columns and labels:
aspartokinase = test: Aspartokinase (AK) activity of cell-disrupted solutions of Corynebacterium glutamicum strains, with and without L-lysine/L-threonine; assay type: biochemical, Corynebacterium glutamicum (Brevibacterium lactofermentum); settings: plasmids introduced into AJ12036; for 2 mM Lys + Thr (desensitization degree of inhibition): 2 mM lysine + threonine; for 5 mM Lys (desensitization degree of inhibition): lysine 5 mM; for Specific activity: Table 5; for 5 mM Thr (desensitization degree of inhibition): threonine 5 mM
Text: When a wild type strain is used as a donor for the DNA fragment containing the AK gene, a DNA fragment containing a wild type AK gene can be obtained. The DNA fragment containing the gene for AK in which synergistic feedback inhibition by L-lysine and L-threonine is substantially desensitized can be obtained by using a mutant strain in which synergistic feedback inhibition on the AK activity by L-lysine and L-threonine is substantially desensitized. The mutant strain can be obtained, for example, from a group of cells subjected to an ordinary mutation treatment, ultraviolet light irradiation, or a treatment with a mutating agent such as N-methyl-N'-nitro-N-nitrosoguanidine (NTG). The AK activity can be measured by using a method described in Miyajima, R. et al., The Journal of Biochemistry (1968), 63(2), 139-148.
Strains were prepared by introducing the wild type AK plasmid p399AKYB and the mutant AK plasmid p399AK9B respectively into AJ12036 strain (FERM P-7559) as a wild type strain of Corynebacterium glutamicum (Brevibacterium lactofermentum). The genes were introduced into Corynebacterium by means of an electric pulse method. The aspartokinase activity was measured for Corynebacterium glutamicum (Brevibacterium lactofermentum) AJ12036 strain as a host, AJ12690 strain harboring the wild type AK plasmid, and AJ12691 (FERM P12918) strain harboring the mutant AK plasmid. The activity was measured in accordance with an ordinary method (see Miyajima, R. et al., The Journal of Biochemistry (1968) 63(2), 139-148). […]
Strains were prepared by introducing 8 kinds of the plasmids shown in Table 3 into AJ12036 strain (FERM P-7559) as a wild type strain of Corynebacterium glutamicum (Brevibacterium lactofermentum) in the same manner as Example 3. The AK activity was measured for each of the strains. […] The desensitization degree of inhibition by lysine and/or threonine was similar to those in Example 6.

[1] = test system: Corynebacterium glutamicum (Brevibacterium lactofermentum) AJ12036; test: L-lysine productivity evaluated by cultivation in production medium; assay type: cell-based; settings: plasmids introduced into AJ12036; cultivation as in Example 3
Description: The lysine productivity was evaluated by cultivation for the wild type strain AJ12036, the wild type AK plasmid-harboring strain AJ12690, and the mutant AK plasmid-harboring strain AJ12691 (FERM P-12918). The evaluation by cultivation was performed by inoculating the strains to a production medium (containing glucose 100 g, (NH4)2 SO4 55 g, KH2 PO4 1 g, MgSO4.7H2 O 1 g, soybean protein acid hydrolysate "Mamenou" (product of Ajinomoto Co., Ltd., trade name) 50 ml, FeSO4.7H2 O 10 mg, MnSO4.4H2 O 10 mg, nicotinic acid amide 5 mg, and CaCO3 50 g in 1 l of pure water, pH 8.0), and cultivating them with reciprocatory shaking at 31.5° C. for 72 hours. […] The plasmid-holding ratio upon completion of the cultivation was measured by using an index of chloramphenicol resistance as a drug resistance marker of the plasmid.
The lysine productivity was further evaluated by cultivation for the 9 kinds of these strains by using a method similar to that in Example 3.

AK [2] = test: AK enzyme activity and inhibition by lysine/threonine in cell-free extracts of AK-deficient Escherichia coli Gif106M1 transformants; assay type: biochemical, Corynebacterium glutamicum; settings: for Specific activity: Table 4; for 5 mM Lys + Thr (degree of desensitization of inhibition, activity-holding ratio): lysine 5 mM+threonine 5 mM; for 5 mM Lys + Thr (degree of desensitization of inhibition, activity-holding ratio) / 5 mM Lys (degree of desensitization of inhibition, activity-holding ratio) / 5 mM Thr (degree of desensitization of inhibition, activity-holding ratio): activity without addition = 100%, E. coli Gif106M1 extracts; for 5 mM Lys (degree of desensitization of inhibition, activity-holding ratio): lysine 5 mM; for 5 mM Thr (degree of desensitization of inhibition, activity-holding ratio): threonine 5 mM
Text: Bacteriol. 112, 84-92 (1972), Theze, J. et al., J. […] It is known that most of genes of bacteria belonging to the genus Corynebacterium are expressed in Escherichia coli. In addition, the AK gene was ligated at a position downstream from lac promoter on pHSG399. Thus it was postulated that the gene could be expressed in Escherichia coli. […] Thus it was confirmed that AK from the bacteria belonging to the genus Corynebacterium was expressed and operated in cells of Escherichia coli. Subsequently, cell-free extracts were prepared from bacterial cells, and the enzyme activity of AK was measured. Upon measurement of the enzyme activity of AK, various concentrations of lysine and threonine were added to enzyme reaction solutions to investigate the degree of inhibition (FIG. 2). […] (Ki value: 0.4 mM→5.0 mM). […] Cell-free extracts were prepared, and enzymes were analyzed.

AK [3] = test: Thermal stability of AK, treatment at 55° C. for 1.5 hour; assay type: biochemical, Corynebacterium glutamicum; settings: FIG. 6
Description: The activity-holding ratio after a treatment at 55° C. for 90 minutes is indicated by %.
Thermal stability was investigated as an index of stability of the enzyme structure constructed by the introduction of mutation. The treatment condition was set at 55° C. for 1.5 hour in which the activity of the wild type AK was about 80%.

[4] = E. coli Gif106M1 cell-free extracts

Molecule | 2 mM Lys + Thr (desensitization degree of inhibition) (aspartokinase) [%] | 5 mM Lys (desensitization degree of inhibition) (aspartokinase) [%] | Specific activity (aspartokinase) [mU/mg protein] | 5 mM Thr (desensitization degree of inhibition) (aspartokinase) [%] | Lys--HCl [1] [g/L] | concerted inhibition by lysine+threonine (AK [2]; [4]) | inhibition by lysine alone as compared with the wild type (AK [2]; [4]) | Specific activity (AK [2]; [4]) [mU/mg protein] | 5 mM Lys + Thr (degree of desensitization of inhibition, activity-holding ratio) (AK [2]) [%] | 5 mM Lys (degree of desensitization of inhibition, activity-holding ratio) (AK [2]) [%] | 5 mM Thr (degree of desensitization of inhibition, activity-holding ratio) (AK [2]) [%] | thermal stability compared with the wild type (AK [3])
Cys: mutant aspartokinase 279 Ala→Cys, plasmid p399AKAC (p399AKACB) (protein, UniProt P26512 1-421, looked up, variant A279C) Aspartokinase: MALVVQKYGGSSLESAERIRNVAERIVATKKAGNDVVVVCSAMGDTTDELLELAAAVNPVPPAREMDMLLTAGERISNALVAMAIESLGAEAQSFTGSQAGVLTTERHGNARIVDVTPGRVREALDEGKICIVAGFQGVNKETRDVTTLGRGGSDTTAVALAAALNADVCEIYSDVDGVYTADPRIVPNAQKLEKLSFEEMLELAAVGSKILVLRSVEYARAFNVPLRVRSSYSNDPGTLIAGSMEDIPVEEAVLTGVATDKSEAKVTVLGISDKPGECAKVFRALADAEINIDMVLQNVSSVEDGTTDITFTCPRSDGRRAMEILKKLQVQGNWTNVLYDDQVGKVSLVGAGMKSHPGVTAEFMEALRDVNVNIELISTSEIRISVLIREDDLDAAARALHEQFQLGGEDEAVVYAGTGR | 60.6 | 66.5 | 267.0 | 135.7 | 13.41 | enhanced | equivalent to that in the wild type | 15.4 | 17.0 | 56.3 | 108.1 | higher stability than that of the wild type
Val: mutant aspartokinase 279 Ala→Val, plasmid p399AKAV (p399AKAVB) (protein, UniProt P26512 1-421, looked up, variant A279V) Aspartokinase: MALVVQKYGGSSLESAERIRNVAERIVATKKAGNDVVVVCSAMGDTTDELLELAAAVNPVPPAREMDMLLTAGERISNALVAMAIESLGAEAQSFTGSQAGVLTTERHGNARIVDVTPGRVREALDEGKICIVAGFQGVNKETRDVTTLGRGGSDTTAVALAAALNADVCEIYSDVDGVYTADPRIVPNAQKLEKLSFEEMLELAAVGSKILVLRSVEYARAFNVPLRVRSSYSNDPGTLIAGSMEDIPVEEAVLTGVATDKSEAKVTVLGISDKPGEVAKVFRALADAEINIDMVLQNVSSVEDGTTDITFTCPRSDGRRAMEILKKLQVQGNWTNVLYDDQVGKVSLVGAGMKSHPGVTAEFMEALRDVNVNIELISTSEIRISVLIREDDLDAAARALHEQFQLGGEDEAVVYAGTGR | 75.5 | 60.5 | 448.9 | 103.5 | 25.02 | – | – | 21.8 | 52.3 | 51.1 | 98.3 | highest stability
Tyr: mutant aspartokinase 279 Ala→Tyr, plasmid p399AKAY (p399AKAYB) (protein, UniProt P26512 1-421, looked up, variant A279Y) Aspartokinase: MALVVQKYGGSSLESAERIRNVAERIVATKKAGNDVVVVCSAMGDTTDELLELAAAVNPVPPAREMDMLLTAGERISNALVAMAIESLGAEAQSFTGSQAGVLTTERHGNARIVDVTPGRVREALDEGKICIVAGFQGVNKETRDVTTLGRGGSDTTAVALAAALNADVCEIYSDVDGVYTADPRIVPNAQKLEKLSFEEMLELAAVGSKILVLRSVEYARAFNVPLRVRSSYSNDPGTLIAGSMEDIPVEEAVLTGVATDKSEAKVTVLGISDKPGEYAKVFRALADAEINIDMVLQNVSSVEDGTTDITFTCPRSDGRRAMEILKKLQVQGNWTNVLYDDQVGKVSLVGAGMKSHPGVTAEFMEALRDVNVNIELISTSEIRISVLIREDDLDAAARALHEQFQLGGEDEAVVYAGTGR | 32.2 | 16.1 | 425.6 | 104.8 | 25.12 | – | enhanced | 14.4 | 19.4 | 14.4 | 103.6 | higher stability than that of the wild type
Phe: mutant aspartokinase 279 Ala→Phe, plasmid p399AKAF (p399AKAFB) (protein, UniProt P26512 1-421, looked up, variant A279F) Aspartokinase: MALVVQKYGGSSLESAERIRNVAERIVATKKAGNDVVVVCSAMGDTTDELLELAAAVNPVPPAREMDMLLTAGERISNALVAMAIESLGAEAQSFTGSQAGVLTTERHGNARIVDVTPGRVREALDEGKICIVAGFQGVNKETRDVTTLGRGGSDTTAVALAAALNADVCEIYSDVDGVYTADPRIVPNAQKLEKLSFEEMLELAAVGSKILVLRSVEYARAFNVPLRVRSSYSNDPGTLIAGSMEDIPVEEAVLTGVATDKSEAKVTVLGISDKPGEFAKVFRALADAEINIDMVLQNVSSVEDGTTDITFTCPRSDGRRAMEILKKLQVQGNWTNVLYDDQVGKVSLVGAGMKSHPGVTAEFMEALRDVNVNIELISTSEIRISVLIREDDLDAAARALHEQFQLGGEDEAVVYAGTGR | 32.4 | 14.6 | 447.7 | 105.0 | 25.14 | – | enhanced | 18.7 | 18.2 | 12.1 | 103.0 | higher stability than that of the wild type
